In patent US20250230217A1:

Target: mesothelin-Fc fusion protein (human) (UniProt Q13421)
Test: cell-based or functional assay

Chain of UniProt Q13421 (Q13421 other isoform, or with tags, fused parts or gaps limits assumed): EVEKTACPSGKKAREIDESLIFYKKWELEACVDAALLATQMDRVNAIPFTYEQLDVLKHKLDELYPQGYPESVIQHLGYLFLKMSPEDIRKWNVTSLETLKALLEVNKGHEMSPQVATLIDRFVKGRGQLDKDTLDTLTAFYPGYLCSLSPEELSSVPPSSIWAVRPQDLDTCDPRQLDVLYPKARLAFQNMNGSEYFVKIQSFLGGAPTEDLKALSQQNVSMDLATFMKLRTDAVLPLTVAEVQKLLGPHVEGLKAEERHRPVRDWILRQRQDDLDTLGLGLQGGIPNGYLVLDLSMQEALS

Substance | Total Population Doublings (donor 1) (population doublings) | Total Population Doublings (donor 2) (population doublings) | Total Population Doublings (donor 3) (population doublings)
mesothelin-specific 28z CAR (SS1 scFv, CD28 and CD3z domains) | 5.8 | 6.9 | 6
mesothelin-specific BBz CAR (SS1 scFv, 4-1BB and CD3z domains) | 8.8 | 8.4 | 8.4
